Literature values as cited in PMC3902607.

Target: RXFP2 (Homo sapiens) (UniProt Q8WXD0)
Chain of UniProt Q8WXD0 (Q8WXD0 whole entry): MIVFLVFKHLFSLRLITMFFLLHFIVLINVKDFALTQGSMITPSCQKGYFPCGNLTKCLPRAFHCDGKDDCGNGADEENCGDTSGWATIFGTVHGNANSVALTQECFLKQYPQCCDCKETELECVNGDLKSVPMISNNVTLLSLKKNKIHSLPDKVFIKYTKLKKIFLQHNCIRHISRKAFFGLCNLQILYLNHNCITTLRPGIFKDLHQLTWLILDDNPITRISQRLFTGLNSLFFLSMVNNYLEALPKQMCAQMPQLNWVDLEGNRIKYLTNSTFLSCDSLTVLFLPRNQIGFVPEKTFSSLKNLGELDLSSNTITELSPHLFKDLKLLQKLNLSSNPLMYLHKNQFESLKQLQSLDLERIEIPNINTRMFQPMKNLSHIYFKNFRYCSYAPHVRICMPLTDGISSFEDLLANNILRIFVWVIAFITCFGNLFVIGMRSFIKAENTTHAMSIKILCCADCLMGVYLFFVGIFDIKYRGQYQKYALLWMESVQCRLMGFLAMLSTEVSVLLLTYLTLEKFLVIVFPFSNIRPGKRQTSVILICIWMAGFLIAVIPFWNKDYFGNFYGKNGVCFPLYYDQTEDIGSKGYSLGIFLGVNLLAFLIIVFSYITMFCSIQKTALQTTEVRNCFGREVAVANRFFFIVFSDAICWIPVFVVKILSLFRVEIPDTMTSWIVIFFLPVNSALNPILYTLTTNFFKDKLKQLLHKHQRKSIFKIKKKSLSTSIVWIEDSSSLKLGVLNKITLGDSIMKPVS

Kd: < 1 nM
Substance: INSL3 (from UniProt P51460)
